These results are taken from US20170298359, “OLIGONUCLEOTIDE TARGETED TO THE A20-THREE PRIME UNTRANSLATED REGION” (Max-Delbrück-Centrum für Molekulare Medizin in …, published 2017).

Data set [1] concerns the target T1, RC3H1-N2 (Roquin-1, RING, ROQ and CCCH zinc finger domains) (Homo sapiens, UniProt Q5TC82 Q5TC82:2-452).
T1 sequence: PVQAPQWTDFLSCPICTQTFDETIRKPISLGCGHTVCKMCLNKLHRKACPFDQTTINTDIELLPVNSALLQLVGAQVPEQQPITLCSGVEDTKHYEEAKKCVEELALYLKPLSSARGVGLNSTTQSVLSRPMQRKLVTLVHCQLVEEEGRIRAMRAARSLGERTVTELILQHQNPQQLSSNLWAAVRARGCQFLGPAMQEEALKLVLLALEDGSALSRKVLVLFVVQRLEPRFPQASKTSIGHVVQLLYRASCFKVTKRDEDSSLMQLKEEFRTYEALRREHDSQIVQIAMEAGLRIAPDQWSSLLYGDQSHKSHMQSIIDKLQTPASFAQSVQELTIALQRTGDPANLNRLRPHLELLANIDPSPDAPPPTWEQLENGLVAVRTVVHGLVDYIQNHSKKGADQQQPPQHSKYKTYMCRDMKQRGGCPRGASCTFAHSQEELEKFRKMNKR
Put plainly: EMSA; same buffer; higher affinity than RC3H1-N1. Conditions: tags: N-terminal His7 cleaved with TEV protease, E. coli Rosetta 2 (DE3), pQLinkH; label: 5'-32P; hairpin. As for the experimental part:
(§1) The EMSA was performed as described before⁴⁹ with the following modifications: RNA was prepared by 5′ end-labeling of commercially synthesized RNA oligonucleotides with [γ-³²P]-ATP using T4 polynucleotide kinase (NEB). Labeled RNA was gel purified and eluted and adjusted with H₂O to 1 pmol/μl. 50 fmol of labelled RNA was used per 20 μl reaction. Prior to binding reactions, a master mix containing labelled RNA, lx binding buffer (20 mM Tris-HCl (pH 7.5), 50 mM KCl, 5 mM MgCl₂, 20 μM ZnSO₄, 10% glycerol), 2 mM DTT, 0.05 mg/ml BSA, and 5 μg/ml heparin was heated at 90° C. for 1 min and gradually cooled down to room temperature. In parallel, a dilution series of 10× protein stocks was prepared in 1× protein dilution buffer (1× binding buffer, 5 μg/ml heparin). For each binding reaction, 2 μl of the 10× protein stock was added to 18 μl of the mastermix at room temperature for 2 h. After addition of 4 μl 6× loading buffer (30% glycerol, bromphenol blue, xylene cyanol), RNP complexes were resolved by nondenaturing PAGE (6% polyacrylamide, 0.5×TBE, 5% glycerol) in ice-cold 0.5×TBE buffer containing 20 μM ZnSO₄ at 100 V for 40 min. The protein-bound RNA and the free RNA were quantified using a phosphorimager.
Background: In EMSA bound probe runs differently from free probe, usually more slowly.

In data set [2] the target is T1, RC3H1-N2 (Roquin-1, RING, ROQ and CCCH …). Kind of data set: EMSA; same buffer; higher affinity than for the 23 nt hairpin; reduced by antisense LNA SEQ 6 (FIG. 5c). The note with it: tags: N-terminal His7 cleaved with TEV protease, E. coli Rosetta 2 (DE3), pQLinkH; label: 5'-32P. How it is done: as §1
For data set [3] the target is unchanged. Put plainly: EMSA; same buffer; similar to RC3H1-N1. Conditions: tags: N-terminal His7 cleaved with TEV protease, E. coli Rosetta 2 (DE3), pQLinkH; label: 5'-32P; hairpin. As for the experimental part:
as §1

Data set [4] addresses T2, RC3H1-N1 (Roquin-1, RING and ROQ domains) (Homo sapiens, UniProt Q5TC82 Q5TC82:2-399).
T2 sequence: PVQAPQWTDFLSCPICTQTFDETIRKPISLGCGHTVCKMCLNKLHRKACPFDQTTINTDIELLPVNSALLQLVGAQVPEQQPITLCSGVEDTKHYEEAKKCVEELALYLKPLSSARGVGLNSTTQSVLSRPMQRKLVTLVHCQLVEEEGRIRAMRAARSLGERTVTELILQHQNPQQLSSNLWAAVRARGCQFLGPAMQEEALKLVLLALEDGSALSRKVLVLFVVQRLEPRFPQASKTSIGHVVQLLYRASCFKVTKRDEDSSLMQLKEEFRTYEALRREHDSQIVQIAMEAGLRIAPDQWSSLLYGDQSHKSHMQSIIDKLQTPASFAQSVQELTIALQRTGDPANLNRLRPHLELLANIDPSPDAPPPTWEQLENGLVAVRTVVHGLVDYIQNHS
Kind of data set: EMSA; 20 mM Tris-HCl pH 7.5, 50 mM KCl, 5 mM MgCl2, 20 uM ZnSO4, 5 ug/ml heparin, room temperature; binding independent of CCCH zinc finger. The note with it: tags: N-terminal His7 cleaved with TEV protease, E. coli Rosetta 2 (DE3), pQLinkH; label: 5'-32P; hairpin. As for the experimental part: as §1

B1: A20 23 nt hairpin (ssRNA)
RNA: ACCCUUACAUUAUGUAUGAGGGA
Regarding B1, the binding result in data set [1] is recorded as “binds”.

B2: A20 37 nt (ssRNA)
RNA: AUAUAUAAUAUACCCUUACAUUAUGUAUGAGGGAUUU
Consider B2, for which the binding result in data set [2] is reported as “binds”.

B3: ICOS CDE-like stem-loop 13 nt (ssRNA)
RNA: AUUUCUGUGAAAU
On to B3, for which the binding result in data set [3] and in data set [4] was “binds” throughout.
